Earlier results in paper PMC3601411.

Target: Fibrinogen gamma chain C-terminal region (Homo sapiens) (UniProt P02679)
Test: isothermal calorimetry

For “Clumping factor A (ClfA) 229-545 (from UniProt Q2G015)”, the Kd is given as 0.657 µM.
